Experimental data as given in patent US6001988, “High affinity nucleic acid ligands to lectins” (NeXstar Pharmaceuticals, Inc.).

Experiments:
L-selectin (LS-Rg) [1] = biological target: T1, L-selectin (LS-Rg) (Homo sapiens, UniProt P14151 P14151:39-332); assay: filter; 4 C, HSMC; biphasic, fraction 0.65, low affinity Kd 14.5 nM; 142 nM at room temp; conditions: tags: human IgG2 Fc fusion (provided by A. Varki); label: 32P
T1 chain: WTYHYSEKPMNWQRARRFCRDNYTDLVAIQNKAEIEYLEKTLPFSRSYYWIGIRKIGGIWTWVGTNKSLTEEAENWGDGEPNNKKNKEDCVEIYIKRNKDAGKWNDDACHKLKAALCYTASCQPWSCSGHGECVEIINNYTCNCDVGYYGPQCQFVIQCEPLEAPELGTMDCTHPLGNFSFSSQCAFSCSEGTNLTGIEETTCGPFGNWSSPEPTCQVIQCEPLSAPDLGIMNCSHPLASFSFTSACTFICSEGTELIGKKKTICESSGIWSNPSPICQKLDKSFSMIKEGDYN
Description: (§1) As described in SELEX Patent Applications, the nitrocellulose filter partitioning method was used to determine the affinity of RNA ligands for LS-Rg and for other proteins. Filter discs (nitrocellulose/cellulose acetate mixed matrix, 0.45 um pore size, Millipore) were placed on a vacuum manifold and washed with 2 ml of HSMC buffer under vacuum. Reaction mixtures, containing ^32P labeled RNA pools and unlabeled LS-Rg, were incubated in HSMC for 10–20 min at 4° C., room temperature or 37° C., filtered, and then immediately washed with 4 ml HSMC at the same temperature. The filters were air-dried and counted in a Beckman LS6500 liquid scintillation counter without fluor.
(§2) The dissociation constants for representative ligands from rounds 13 and 14, including all orphans, were determined by nitrocellulose filter binding experiments and are listed in Table IX. These calculations assume two RNA ligand binding sites per chimera. The affinity of random RNA cannot be reliably determined but is estimated to be approximately 10 µM.

P-selectin (PS-Rg) [2] = biological target: T2, P-selectin (PS-Rg) (Homo sapiens, UniProt P16109 P16109:42-321); assay: filter; 4 C, HSMC; conditions: tags: human IgG1 Fc fusion (provided by A. Varki); chain copies: 2; label: 32P
T2 chain: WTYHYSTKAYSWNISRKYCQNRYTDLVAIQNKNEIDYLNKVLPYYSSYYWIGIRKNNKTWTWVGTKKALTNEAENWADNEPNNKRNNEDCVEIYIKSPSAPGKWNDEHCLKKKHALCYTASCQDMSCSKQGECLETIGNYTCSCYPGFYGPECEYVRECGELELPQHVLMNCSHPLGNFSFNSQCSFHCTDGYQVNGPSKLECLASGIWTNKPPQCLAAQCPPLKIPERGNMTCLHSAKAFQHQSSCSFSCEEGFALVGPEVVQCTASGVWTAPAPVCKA
Description: as §1
(§3) The affinity of L-selectin ligands to ES-Rg, PS-Rg and CD22β-Rg were determined by nitrocellulose partitioning. […] In general, a ligand's affinity for ES-Rg is 10^3-fold lower and that for PS-Rg is about 10^4-fold less than for LS-Rg. […] The specificity of oligonucleotide ligand binding contrasts sharply with the binding of cognate carbohydrates by the selectins and confirms the assertion that SELEX ligands will have greater specificity than carbohydrate ligands.
(§4) *Dissociation constants were determined at 4° C. in HSMC buffer.

E-selectin (ES-Rg) [3] = biological target: T3, E-selectin (ES-Rg) (Homo sapiens, UniProt P16581 P16581:22-556); assay: filter; 4 C, HSMC; conditions: tags: human IgG1 Fc fusion (provided by A. Varki), chain copies: 2, label: 32P
T3 chain: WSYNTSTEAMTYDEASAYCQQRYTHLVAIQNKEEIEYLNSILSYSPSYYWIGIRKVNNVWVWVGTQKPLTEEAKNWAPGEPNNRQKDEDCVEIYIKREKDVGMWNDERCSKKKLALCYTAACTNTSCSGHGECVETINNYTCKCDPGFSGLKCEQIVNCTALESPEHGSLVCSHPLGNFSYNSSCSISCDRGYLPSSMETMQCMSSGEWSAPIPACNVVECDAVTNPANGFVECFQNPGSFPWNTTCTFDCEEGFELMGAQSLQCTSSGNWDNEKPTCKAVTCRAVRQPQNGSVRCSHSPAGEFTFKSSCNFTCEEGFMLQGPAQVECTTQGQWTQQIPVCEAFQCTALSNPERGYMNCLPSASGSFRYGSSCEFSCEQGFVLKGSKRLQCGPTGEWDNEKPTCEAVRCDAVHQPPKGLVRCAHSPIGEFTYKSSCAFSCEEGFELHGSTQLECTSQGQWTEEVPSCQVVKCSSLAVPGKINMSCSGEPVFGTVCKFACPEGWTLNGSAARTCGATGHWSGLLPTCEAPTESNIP
Description: as §1, §3, §4

L-selectin (LS-Rg) [4] = biological target: T1, L-selectin (LS-Rg); assay: filter; 4 C, HSMC; 1.5 nM at room temp; conditions: tags: human IgG2 Fc fusion (provided by A. Varki); label: 32P
Description: as §1, §2

L-selectin (LS-Rg) [5] = biological target: T1, L-selectin (LS-Rg); assay: filter; 4 C, HSMC (Ca/Mg); biphasic, fraction 0.68, low affinity Kd 60 nM; 1.0 nM at room temp; conditions: tags: human IgG2 Fc fusion (provided by A. Varki); label: 32P; pseudoknot
Description: as §1, §2

[6] = biological target: T4, wheat germ agglutinin (WGA) (Triticum vulgare, UniProt P10968 P10968:27-197); assay: filter; HBSS, room temp; printed as 11.3, SEQ 54; conditions: tags: free lectin, E Y Laboratories; label: 32P
T4 sequence: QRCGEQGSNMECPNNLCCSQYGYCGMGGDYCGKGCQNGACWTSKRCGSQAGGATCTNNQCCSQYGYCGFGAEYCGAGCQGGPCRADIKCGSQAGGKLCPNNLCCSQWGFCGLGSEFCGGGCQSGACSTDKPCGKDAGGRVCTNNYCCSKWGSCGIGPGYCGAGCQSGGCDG
Description: (§5) The specifically eluted fraction was processed for use in the following round. Fractions eluted from immobilized WGA were heated at 90° C. for 5 minutes in 1% SDS, 2% β-mercaptoethanol and extracted with phenol/chloroform. RNA was reverse transcribed into cDNA by AMV reverse transcriptase at 48° C. for 60 min in 50 mM Tris-Cl pH (8.3), 60 mM NaCl, 6 mM Mg(OAc)_2, 10 mM DTT, 100 pmol DNA primer, 0.4 mM each of dNTPs, and 0.4 unit/µl AMV RT. […] C) Nitrocellulose Filter Partitioning As described in SELEX Patent Applications, the nitrocellulose filter partitioning method was used to determine the affinity of RNA ligands for WGA and for other proteins. Filter discs (nitrocellulose/cellulose acetate mixed matrix, 0.45 µm pore size, Millipore; or pure nitrocellulose, 0.45 µm pore size, Bio-Rad) were placed on a vacuum manifold and washed with 4 ml of HBSS buffer under vacuum. Reaction mixtures, containing ^32P labeled RNA pools and unlabeled WGA, were incubated in HBSS for 10 min at room temperature, filtered, and then immediately washed with 4 ml HBSS. The filters were air-dried and counted in a Beckman LS6500 liquid scintillation counter without fluor. […]
The dissociation constants for representative members of families 1–9 and orphan ligands were determined by nitrocellulose filter binding experiments and are listed in Table III. […]

[7] = biological target: T5, Ulex europaeus lectin UEA-II (Ulex europaeus, UniProt P22973 P22973:1-249); assay: filter; HBSS, room temp; conditions: tags: E Y Laboratories; label: 32P; hairpin
T5 sequence: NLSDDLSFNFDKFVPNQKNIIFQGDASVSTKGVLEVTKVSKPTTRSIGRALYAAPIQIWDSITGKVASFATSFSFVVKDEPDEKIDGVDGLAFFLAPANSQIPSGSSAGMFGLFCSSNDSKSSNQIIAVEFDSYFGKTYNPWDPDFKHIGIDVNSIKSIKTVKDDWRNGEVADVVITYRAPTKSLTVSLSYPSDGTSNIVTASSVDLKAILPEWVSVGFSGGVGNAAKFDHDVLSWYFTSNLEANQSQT
Description: as §5, with “fluor. WGA is a homodimer, molecular weight 43.2 kD, with 4 GlcNAc binding sites per dimer. For affinity calculations, we assume one RNA ligand binding site per monomer (two per dimer).” for “fluor.”

[8] = biological target: T4, wheat germ agglutinin (WGA); assay: filter; HBSS, room temp; 11.4 nM in Table IV; conditions: tags: free lectin, E Y Laboratories; label: 32P; hairpin
Description: as §5, with “fluor. WGA is a homodimer, molecular weight 43.2 kD, with 4 GlcNAc binding sites per dimer. For affinity calculations, we assume one RNA ligand binding site per monomer (two per dimer).” for “fluor.”

L-selectin (LS-Rg) [9] = biological target: T1, L-selectin (LS-Rg); assay: filter; 4 C, HSMC; 15.9 nM at room temp; conditions: tags: human IgG2 Fc fusion (provided by A. Varki); label: 32P; hairpin
Description: as §1, §2

P-selectin (PS-Rg) [10] = biological target: T2, P-selectin (PS-Rg); assay: filter; room temp, Ca/Mg buffer; conditions: tags: lectin, EGF and first two CRD domains fused to human IgG1 Fc (provided by A. Varki); chain copies: 2 (dimeric Fc chimera, inferred)
Description: (§6) RNA was reverse transcribed into cDNA by AMV reverse transcriptase at 48° C. for 60 min in 50 mM Tris-Cl pH (8.3), 60 mM NaCl, 6 mM Mg(OAc)_2, 10 mM DTT, 100 pmol DNA primer, 0.4 mM each of dNTPs, and 0.4 unit/µl AMV RT. […] C) Nitrocellulose Filter Partitioning As described in SELEX Patent Applications, the nitrocellulose filter partitioning method was used to determine the affinity of RNA ligands for WGA and for other proteins. Filter discs (nitrocellulose/cellulose acetate mixed matrix, 0.45 µm pore size, Millipore; or pure nitrocellulose, 0.45 µm pore size, Bio-Rad) were placed on a vacuum manifold and washed with 4 ml of HBSS buffer under vacuum. Reaction mixtures, containing ^32P labeled RNA pools and unlabeled WGA, were incubated in HBSS for 10 min at room temperature, filtered, and then immediately washed with 4 ml HBSS. The filters were air-dried and counted in a Beckman LS6500 liquid scintillation counter without fluor. WGA is a homodimer, molecular weight 43.2 kD, with 4 GlcNAc binding sites per dimer. For affinity calculations, we assume one RNA ligand binding site per monomer (two per dimer). The monomer concentration is defined as 2 times the dimer concentration. The equilibrium dissociation constant, K_d, for an RNA pool or specific ligand that binds monophasically is given by the equation $$K_d=[P_f][R_f]/[RP]$$
(§7) The affinity of representative cloned ligands for LS-Rg, ES-Rg, PS-Rg, CD22β-Rg and WGA was determined by nitrocellulose partitioning and the results shown in Table XIV. The ligands are highly specific for L-selectin.
(§8) *Kds were determined at room temperature.

E-selectin (ES-Rg) [11] = biological target: T3, E-selectin (ES-Rg); assay: filter; room temp, Ca/Mg buffer; conditions: tags: extracellular domain fused to human IgG1 Fc (provided by A. Varki); chain copies: 2 (dimeric Fc chimera, inferred)
Description: as §6, §7, §8

L-selectin (LS-Rg) [12] = biological target: T1, L-selectin (LS-Rg); assay: filter; room temp; 2.1 nM at 37 C; conditions: tags: human IgG2 Fc fusion (provided by A. Varki); label: 32P
L-selectin (LS-Rg) [13] = biological target: T1, L-selectin (LS-Rg); assay: filter; 4 C, HSMC; 5.5 nM at room temp; conditions: tags: human IgG2 Fc fusion (provided by A. Varki); label: 32P
Description: as §1, §2

B1: F14.53 (ssRNA)
RNA: GGGAGGACGAUGCGGUCCCAGAGUCCCGUGAUGCGAAGAAUCCAUUAGUACCAGACAGACGACUCGCCCGA
modifications: 2'-NH2 all C and U
Kd (L-selectin (LS-Rg) [1]): 0.097 nM | Kd (P-selectin (PS-Rg) [2]): 5200 nM | Kd (E-selectin (ES-Rg) [3]): 355 nM

B2: F13.55 (ssRNA)
RNA: GGGAGGACGAUGCGGUGUCUCUCCUGACUUUUAUUCUUAGUUCGAGCUGUCCUGGCAGACGACUCGCCCGA
modifications: 2'-NH2 all C and U
Kd (L-selectin (LS-Rg) [4]): 0.062 nM | Kd (P-selectin (PS-Rg) [2]): 5800 nM | Kd (E-selectin (ES-Rg) [3]): 49 nM

B3: F14.20 (ssRNA)
RNA: GGGAGGACGAUGCGGUAACAACAAUCAAGGCGGGUUCACCGCCCCAGUAUGAGUGCAGACGACUCGCCCGA
modifications: 2'-NH2 all C and U
Kd (E-selectin (ES-Rg) [3]; pseudoknot): 70 nM | Kd (L-selectin (LS-Rg) [5]): 0.058 nM

B4: 11.30 (ssRNA)
RNA: GGGAAAAGCGAAUCAUACACAAGACGGUUGCUGAACAGAACGUGAGUCUUGGUGAGUCGCACAGAUUGUCCUGCUCCGCCAGAGACCAACCGAGAA
modifications: 2'-NH2 all C and U
Kd [6]: 56 nM

B5: 6.8 (ssRNA)
RNA: GGGAAAAGCGAAUCAUACACAAGAAAGGGAUGGGAUUGGGACGAGCGGCCAAGACUCGGCGGGAACGAAGGGUCCGCUCCGCCAGAGACCAACCGAGAA
modifications: 2'-NH2 all C and U
Kd [7]: 4400 nM | Kd [8]: 11 nM

B6: F14.21 (ssRNA)
RNA: GGGAGGACGAUGCGGUUGAGAUGUGUGAGUACAAGCUCAAAAUCCCGUUGGAGGCAGACGACUCGCCCGA
modifications: 2'-NH2 all C and U
Kd (L-selectin (LS-Rg) [9]): 2.3 nM | Kd (E-selectin (ES-Rg) [3]; hairpin): 2600 nM

B7: 122 (ssDNA)
DNA: CTACCTACGATCTGACTAGCGCAACGTGGCCCCGTTTAGCTCATTTGACCGTTCCATCCGGCTTACTCTCATGTAGTTCC
Kd (P-selectin (PS-Rg) [10]): 420 nM | Kd (E-selectin (ES-Rg) [11]): 400 nM | Kd (L-selectin (LS-Rg) [12]): 1.8 nM

B8: F13.42 (ssRNA)
RNA: GGGAGGACGAUGCGGGAUGUAAAUGACAAAUGAACCUCGAAAGAUUGCACACUCCAGACGACUCGCCCGA
modifications: 2'-NH2 all C and U
Kd (L-selectin (LS-Rg) [13]): 2 nM | Kd (E-selectin (ES-Rg) [3]): 4400 nM
